This data set deals with the molecule itself. Briefly: cryo-EM structure; single-particle cryo-EM of the detergent-solubilised, amphipol-stabilised ~1-MDa XcpQ multimer flash frozen on vitreous ice; Titan Krios, Gatan K2 Summit; 18,000+ particles; 2D class averages and 3D reconstruction under C15 symmetry, 3.6 Å.

By stoichiometry N is commonly meant a count of units in the complex or per binding partner.

B1: XcpQ secretin of the Pseudomonas aeruginosa PAO1 type 2 secretion system (natural protein)
chain: ENSGGNAFVPAGNQQEAHWTINLKDADIREFIDQISEITGETFVVDPRVKGQVSVVSKAQLSLSEVYQLFLSVMSTHGFTVVAQGDQARIVPNAEAKTEAGGGQSAPDRLETRVIQVQQSPVSELIPLIRPLVPQYGHLAAVPSANALIISDRSANIARIEDVIRQLDQKGSHDYSVINLRYGWVMDAAEVLNNAMSRGQAKGAAGAQVIADARTNRLIILGPPQARAKLVQLAQSLDTPTARSANTRVIRLRHNDAKTLAETLGQISEGMKNNGGQGGEQTGGGRPSNILIRADESTNALVLLADPDTVNALEDIVRQLDVPRAQVLVEAAIVEISGDIQDAVGVQWAINKGGMGGTKTNFANTGLSIGTLLQSLESNKAPESIPDGAIVGIGSSSFGALVTALSANTKSNLLSTPSLLTLDNQKAEILVGQNVPFQTGSYTTNSEGSSNPFTTVERKDIGVSLKVTPHINDGAALRLEIEQEISALLPNAQQRNNTDLITSKRSIKSTILAENGQVIVIGGLIQDDVSQAESKVPLLGDIPLLGRLFRSTKDTHTKRNLMVFLRPTVVRDSAGLAALSGKKYSDIRVIDGTRGPEGRPSILPTNANQLFDGQAVDLRELMTE
notes: XcpQ, the secretin of the ancestral T2SS of Pseudomonas aeruginosa PAO1; four N domains (N0-N3), secretin domain (Pfam PF00263), S domain; numbers count on: the mature protein; N0 domains not seen and N1 domains poorly resolved in the map, though part of the purified protein; also called XcpQ secretin complex; XcpQ multimer; copies: 15
In the case of B1, the “stoichiometry N” value is 15.

For the origin of these results see publication PMC5646249, “Structural Basis of Type 2 Secretion System Engagement between the Inner and Outer Bacterial Membranes” (mBio, 2017).
